Consider 17 molecules from publication PMC10681739, “High-throughput data and modeling reveal insights into the mechanisms of cooperative DNA-binding by transcription factor proteins”.

The target of the series is RUNX1 (Homo sapiens, UniProt Q01196). Nature of the series: gcPBM; 2 nM RUNX1. The note with it: tags: N-terminal GST (pDEST15), kept (PMC6008103); label: surface-attached array probe.
Sequence of RUNX1 (Q01196 whole entry): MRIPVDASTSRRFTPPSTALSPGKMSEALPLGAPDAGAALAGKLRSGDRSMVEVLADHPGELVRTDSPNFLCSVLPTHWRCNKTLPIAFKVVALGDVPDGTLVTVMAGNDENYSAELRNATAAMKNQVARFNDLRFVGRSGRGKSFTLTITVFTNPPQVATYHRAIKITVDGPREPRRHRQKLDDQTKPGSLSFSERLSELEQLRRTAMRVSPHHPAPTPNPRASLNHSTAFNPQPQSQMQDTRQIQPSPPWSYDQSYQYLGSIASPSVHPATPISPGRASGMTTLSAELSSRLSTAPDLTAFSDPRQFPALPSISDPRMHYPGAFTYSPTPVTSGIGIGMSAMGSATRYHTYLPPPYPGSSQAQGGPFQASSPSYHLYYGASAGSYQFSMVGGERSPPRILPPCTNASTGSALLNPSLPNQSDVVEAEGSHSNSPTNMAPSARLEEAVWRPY

B1: Table S3 B row 2319 (dsDNA)
DNA 1: CCCCGGCAGAAACCGCACCCCACTCCCCATAGCCAC
DNA 2: GTGGCTATGGGGAGTGGGGTGCGGTTTCTGCCGGGG
B1: the binding signal was 4670 PBM fluorescence, median of replicate spots.

B2: Table S3 B row 934 (dsDNA)
DNA 1: TCAGAACCGCAGACGTGGCCCTGCGTGGCTTCAGGC
DNA 2: GCCTGAAGCCACGCAGGGCCACGTCTGCGGTTCTGA
In the case of B2, the binding signal is 4860 PBM fluorescence, median of replicate spots.

B3: Table S3 B row 3703 (dsDNA)
DNA 1: GGAACACTGCGGTCGGGGCGAGGGAGCTGCCGGGGA
DNA 2: TCCCCGGCAGCTCCCTCGCCCCGACCGCAGTGTTCC
On to B3, for which the binding signal was 4100 PBM fluorescence, median of replicate spots.

B4: Table S3 B row 905 (dsDNA)
DNA 1: CCTCTGCGGTCTCTGCAGCCGTTTGCATTTGCTGAA
DNA 2: TTCAGCAAATGCAAACGGCTGCAGAGACCGCAGAGG
With B4, the binding signal was 4320 PBM fluorescence, median of replicate spots.

B5: Table S3 B row 75 (dsDNA)
DNA 1: GCGTCCTTTGCGGTCTTTTGTCCACGTTCGGGTCAA
DNA 2: TTGACCCGAACGTGGACAAAAGACCGCAAAGGACGC
For B5, the binding signal is 4170 PBM fluorescence, median of replicate spots.

B6: Table S3 B row 2682 (dsDNA)
DNA 1: TGGAAACCACAAGTTATTCCCTGCAAGCCGTAAGCA
DNA 2: TGCTTACGGCTTGCAGGGAATAACTTGTGGTTTCCA
As for B6, the binding signal is 4300 PBM fluorescence, median of replicate spots.

B7: Table S3 B row 4026 (dsDNA)
DNA 1: CCTCCTGTGGTTAGTTCCTGCCCGATCAGGCAGGAG
DNA 2: CTCCTGCCTGATCGGGCAGGAACTAACCACAGGAGG
In the case of B7, the binding signal is 4260 PBM fluorescence, median of replicate spots.

B8: Table S3 B row 2861 (dsDNA)
DNA 1: ACGATCCAACCGCATTCACCCCGTAAGCCGCTTCCA
DNA 2: TGGAAGCGGCTTACGGGGTGAATGCGGTTGGATCGT
Turning to B8, the binding signal was 4500 PBM fluorescence, median of replicate spots.

B9: Table S3 B row 2453 (dsDNA)
DNA 1: GCCCTGTGGTTTTCTGAGGCCCCCGAGGAGGAGGTG
DNA 2: CACCTCCTCCTCGGGGGCCTCAGAAAACCACAGGGC
Regarding B9, the binding signal is 5060 PBM fluorescence, median of replicate spots.

B10: Table S3 B row 1201 (dsDNA)
DNA 1: GTGGGCTGTGGTTAGGAGACATGAAGGAGAATGCCA
DNA 2: TGGCATTCTCCTTCATGTCTCCTAACCACAGCCCAC
As to B10, the binding signal is 4150 PBM fluorescence, median of replicate spots.

B11: Table S3 B row 3962 (dsDNA)
DNA 1: GCCCCTCTGCGGTCGCAGCCCCGCCGGGAGTGTGGC
DNA 2: GCCACACTCCCGGCGGGGCTGCGACCGCAGAGGGGC
Consider B11, for which the binding signal was 4660 PBM fluorescence, median of replicate spots.

B12: Table S3 B row 2863 (dsDNA)
DNA 1: CCGCCCTGTGGTTTTGGAGCCCTTGCTCCCGGCGCA
DNA 2: TGCGCCGGGAGCAAGGGCTCCAAAACCACAGGGCGG
In the case of B12, the binding signal was 4640 PBM fluorescence, median of replicate spots.

B13: Table S3 B row 2473 (dsDNA)
DNA 1: CCCACCCAGCAAGCCGTCCTAACCACAACAGCCCTC
DNA 2: GAGGGCTGTTGTGGTTAGGACGGCTTGCTGGGTGGG
Take B13: the binding signal is 5020 PBM fluorescence, median of replicate spots.

B14: Table S3 B row 1215 (dsDNA)
DNA 1: ACAGAGAAACCACAGCCCTGAGCCTCTTCATGACAT
DNA 2: ATGTCATGAAGAGGCTCAGGGCTGTGGTTTCTCTGT
Turning to B14, the binding signal is 4430 PBM fluorescence, median of replicate spots.

B15: Table S3 B row 646 (dsDNA)
DNA 1: GCTCAAACAATAACCACAACACTTCATGCCTCTCTC
DNA 2: GAGAGAGGCATGAAGTGTTGTGGTTATTGTTTGAGC
For B15, the binding signal is 5040 PBM fluorescence, median of replicate spots.

B16: Table S3 B row 1232 (dsDNA)
DNA 1: CTCCTCTGTGGTCAGCCATCAATTCATCCCAGCCCG
DNA 2: CGGGCTGGGATGAATTGATGGCTGACCACAGAGGAG
Consider B16, for which the binding signal was 4200 PBM fluorescence, median of replicate spots.

B17: Table S3 B row 2125 (dsDNA)
DNA 1: CAGGCTGCGGTTGAAATGCATCAGCTCTTTCGTGCC
DNA 2: GGCACGAAAGAGCTGATGCATTTCAACCGCAGCCTG
With B17, the binding signal is 4740 PBM fluorescence, median of replicate spots.
